Data: the supplement of paper PMC10126150
± gives the standard deviation of the averaged measurements.

Tested on: ATP
Assay: switch fluorescence ratio, 500 uM ATP over buffer (Cy3 cluster intensity, sum of 5 cycles each) (fold (ratio)); higher = stronger signal-on switching upon ATP binding; sequences stand for … in TCGTCGGCAGCGTCAGATGTGTATAAGAGACAGTTTTTTTTTTTTTTTTTTTTTTTTT…TC
Conditions: aptamer strand: ATP DNA aptamer (quencher-CACCTGGGGGAGTATTGCGGAGGAAGG + anchor), 100 nM annealed; ATP concentration: 500 uM
In short: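 Switching-strand clusters labelled with Cy3 on a modified Illumina MiSeq flow-cell were annealed to 100 nM quencher-labelled ATP aptamer, imaged in selection buffer, and re-imaged after 15 min with 500 uM ATP at 22 °C. This was done over five cycles with NaOH stripping and re-annealing in between. The fluorescence ratio is summed target-cycle over summed buffer-cycle Cy3 intensity per cluster, averaged per switch-domain sequence, excluding clusters outside 100-1000 RFU.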
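Note: ATP exposure 15 min at 22 °C before imaging.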

Row | Sequence | switch fluorescence ratio
1 | CTCGAGAGCT | 0.973 ± 0.018
2 | GTCGGGAAGG | 1.013 ± 0.0026
3 | AATGAATGAG | 0.971 ± 0.022
4 | TTCCGCACGT | 2.64 ± 1.3
5 | AGACGGCAGC | 0.992 ± 0.035
6 | GGGGCAAGGG | 1.28 ± 0.28
7 | TTAAAGTAGT | 1.19 ± 0.32
8 | TTCGTTTTTT | 0.985 ± 0.047
9 | GGGGAACAGA | 1.02 ± 0.026
10 | GACGGAGGGG | 1.01 ± 0.027
11 | ACGAAGTTTT | 1.02 ± 0.0028
12 | AAGGATTATA | 0.985 ± 0.061
13 | TTATATTACT | 1.01 ± 0.027
14 | ATGGGGTGTA | 1 ± 0.03
15 | GTAGAAATGT | 0.981 ± 0.027
16 | TAGAAGGGGG | 0.965 ± 0.016
17 | TTACTTGTAC | 1.15 ± 0.025
18 | TGGGGGTGAC | 1.04 ± 0.038
19 | AAATTATTCG | 1.03 ± 0.045
20 | CGCCAAATG | 1.033 ± 0.0019
21 | TGTTAGGAGA | 1 ± 0.018
22 | AAAGTGTAAA | 1.08 ± 0.058
23 | TGCAATTTCG | 1.07 ± 0.065
24 | TTTCCTTTGA | 1.06 ± 0.07
25 | TGATGAGTCG | 1.0211 ± 0.00074

Row | Sequence | switch fluorescence ratio
26 | TATGGATAGT | 0.998 ± 0.017
27 | TAGGCCTAAT | 0.9715 ± 0.003
28 | GAATTTTGGG | 1 ± 0.032
29 | GTATTGGGGG | 1.01 ± 0.043
30 | TGGTGGGGGA | 0.987 ± 0.015
31 | ATTCAGGTTC | 0.996 ± 0.032
32 | CCAAGGGAAA | 0.9822 ± 0.0032
33 | AGTTTGTGAC | 0.989 ± 0.029
34 | ATTGTGAACG | 1 ± 0.042
35 | CGGATGGTCA | 1.013 ± 0.0099
36 | TTTCGGTTGC | 1.07 ± 0.11
37 | TTGGGGGCA | 1.03 ± 0.045
38 | TGACGTACCC | 1.7 ± 0.05
39 | ATCAGGGAGT | 1 ± 0.011
40 | CTGTCCTAGG | 1.036 ± 0.0033
41 | CAGGTGTATG | 1.273 ± 0.0042
42 | TTTTCATAAC | 1 ± 0.051
43 | GTTCGTACGT | 0.962 ± 0.082
44 | ATGTGCCGTC | 1.04 ± 0.048
45 | GCCACACTAG | 1.06 ± 0.032
46 | ATTTGTTAAG | 1 ± 0.016
47 | TAGGTCTGTG | 0.987 ± 0.014
48 | CTTAAAAATT | 0.9777 ± 0.0031
49 | AGAGCATATG | 1.02 ± 0.017
50 | ATTAAGGATT | 1.01 ± 0.016

Row | Sequence | switch fluorescence ratio
51 | CGATTGTGGG | 0.9962 ± 0.0092
52 | AGCAGTTCCG | 1.02 ± 0.044
53 | CTCGGTTGGT | 1.006 ± 0.0083
54 | TAGATTGGGT | 0.976 ± 0.033
55 | TGGGAGGAGG | 1.01 ± 0.077
56 | CGGGGCGAAG | 0.984 ± 0.038
57 | TTGTGGAGAA | 1.04 ± 0.072
58 | CCGGTATTTG | 1.021 ± 0.0077
59 | TCTGAGGTGC | 1.06 ± 0.046
60 | AGAATGGGCA | 0.989 ± 0.029
61 | GAATGCCTGT | 1.033 ± 0.0065
62 | CCAAGGGGGA | 1.09 ± 0.1
63 | GGAGGTTGGG | 0.958 ± 0.013
64 | CGATCCGGCG | 1.08 ± 0.16
65 | TTCTCATTGG | 0.9893 ± 0.0039
66 | CGGGTTGTGT | 1 ± 0.02
67 | TTTAAATTTG | 1.018 ± 0.0054
68 | TTAAGCAATT | 1.36 ± 0.047
69 | TTATAGGGCG | 1.02 ± 0.047
70 | GGCTACTTTA | 1.07 ± 0.039
71 | CGATGGGTGC | 0.946 ± 0.015
72 | AAAATGGAAA | 1.028 ± 0.0035
73 | CAGTTTAAGT | 0.993 ± 0.01
74 | GCCAGGGATT | 1.01 ± 0.029
75 | ATTGTATAAG | 0.9828 ± 0.0052

Row | Sequence | switch fluorescence ratio
76 | CACATAGACG | 1.03 ± 0.046
77 | GGGGCTACTA | 1.01 ± 0.014
78 | TTTTATAGTG | 0.984 ± 0.033
79 | TAGCGATTGT | 1.02 ± 0.062
80 | GGGGGAGTGT | 0.985 ± 0.026
81 | TCGGTAAATG | 1.04 ± 0.018
82 | GCTTCGGAGA | 1.029 ± 0.0017
83 | GGGATTATTA | 0.981 ± 0.018
84 | GAAGGCCTAG | 0.9763 ± 0.0042
85 | GGAGAGGGGA | 0.982 ± 0.014
86 | AATGTGTTGT | 0.998 ± 0.011
87 | GGGTTGGGAG | 0.998 ± 0.044
88 | GGGTATTGAT | 1.01 ± 0.042
89 | TCGATTCAGC | 0.979 ± 0.025
90 | TGTTTTAGAC | 0.997 ± 0.035
91 | TAAGGAATGC | 1.54 ± 0.035
92 | TTACTAGTAT | 1 ± 0.025
93 | TGCTTACTTT | 1.33 ± 0.58
94 | GGATTATTTT | 1 ± 0.012
95 | CGTTTGCGAT | 0.989 ± 0.05
96 | CTTGATTTGT | 1.01 ± 0.036
97 | ATTCAGGTTG | 1.02 ± 0.016
98 | GATGGGAGGA | 0.9639 ± 0.005
99 | ATCGGCAGTT | 1 ± 0.015
100 | ATGGTTCCTG | 1.03 ± 0.078

Row | Sequence | switch fluorescence ratio
101 | AAAGAGGGG | 0.98 ± 0.029
102 | CATGATGCTG | 1.01 ± 0.033
103 | TTACTTAAAA | 0.988 ± 0.04
104 | ATGGGGACTT | 0.979 ± 0.035
105 | TAGAGTAACA | 1 ± 0.035
106 | GGTTTCGATA | 0.96836 ± 1.5e-05
107 | GGCTTAGAAT | 0.97374 ± 0.00014
108 | TCCATGTAA | 1.01 ± 0.045
109 | GAAGGTGAGG | 1.01 ± 0.019
110 | CCGGGGGACC | 1.04 ± 0.021
111 | AATACGAGAG | 1.03 ± 0.019
112 | AAGTTTCGAG | 0.983 ± 0.017
113 | AAATCAACCC | 0.9885 ± 0.0083
114 | ATATCTAGCC | 0.9611 ± 0.0042
115 | GGGGGTGTGG | 0.999 ± 0.035
116 | TAGTTTTGAT | 0.963 ± 0.029
117 | GAGTAGTGGG | 0.982 ± 0.037
118 | TTTACTCGGC | 1.08 ± 0.16
119 | TGTGGCGCCA | 0.987 ± 0.04
120 | AAGCGGTGAG | 0.989 ± 0.031
121 | GCAGGTGGGG | 1.1 ± 0.022
122 | AAAGGTAATC | 1.01 ± 0.023
123 | TACAGCGGAG | 0.999 ± 0.066
124 | CCGTTTTAGC | 1.12 ± 0.12
125 | CACTGGAGGG | 0.9937 ± 0.0042

Row | Sequence | switch fluorescence ratio
126 | TTCAGTTGGT | 0.987 ± 0.017
127 | AGAGTTTCTT | 0.981 ± 0.038
128 | CCTAGGCTTT | 1.117 ± 0.0063
129 | AACAGAGTAG | 0.976 ± 0.028
130 | TAGGTTGATG | 0.981 ± 0.035
131 | TCGGCCGCTG | 1.05 ± 0.064
132 | GATTTCCTGG | 1.01 ± 0.02
133 | TCGAATTTTT | 1.02 ± 0.07
134 | GATGATTTTA | 1.02 ± 0.042
135 | TGGTTCTGGG | 0.973 ± 0.013
136 | AAGATGTATG | 0.99 ± 0.02
137 | TTAAGGTTTA | 1.02 ± 0.038
138 | GGTGCATGGT | 1.05 ± 0.011
139 | AGGTACAGTA | 1.017 ± 0.0017
140 | CGTACTTTTT | 1 ± 0.032
141 | CTTGGGGCGG | 0.962 ± 0.017
142 | AGATTTGGCT | 0.9952 ± 0.0065
143 | AGCTTCGTTT | 1 ± 0.031
144 | TATCCCTGCT | 1 ± 0.027
145 | TGTGATGAT | 1.01 ± 0.028
146 | TCTTTATATT | 1.02 ± 0.048
147 | GGTGGGGCGC | 1.01 ± 0.035
148 | TGATTGTTTG | 1.01 ± 0.034
149 | TGGTTGCTGA | 1 ± 0.033
150 | GTGGGCATGG | 0.977 ± 0.022

Row | Sequence | switch fluorescence ratio
151 | CCAAAGGGCC | 1.01 ± 0.071
152 | GAATGTTCGG | 0.999 ± 0.051
153 | GTTGGTGTAT | 0.9913 ± 0.009
154 | GGAGTACGG | 1.03 ± 0.028
155 | AGTAAAGGGA | 1.02 ± 0.029
156 | AACTCCAGGG | 1.35 ± 0.2
157 | CTTGGGGCGC | 1.01 ± 0.049
158 | TATAGGGGCT | 0.9805 ± 0.0098
159 | ATGATTGCGT | 0.991 ± 0.018
160 | TAGGCAGCGG | 0.991 ± 0.023
161 | GTTGTGAGGA | 0.984 ± 0.036
162 | GAACAAAGGG | 0.988 ± 0.017
163 | ACTCTTATCA | 1.01 ± 0.023
164 | TGTCATGTAT | 0.987 ± 0.021
165 | AGATGTTGTT | 1.01 ± 0.023
166 | GTGGGAGGAC | 1.078 ± 0.0018
167 | GTTTCAACTG | 1 ± 0.12
168 | TTTTATAAAA | 1.03 ± 0.019
169 | TCTCCTGGGA | 1.03 ± 0.018
170 | TTTTTTGAGA | 0.975 ± 0.017
171 | CTAACTCGC | 1.04 ± 0.011
172 | AAAATAGAAC | 1.01 ± 0.041
173 | CGCCGGTTGG | 0.997 ± 0.014
174 | TGAGGTTTAG | 1.02 ± 0.028
175 | ATTCTGCTCC | 0.991 ± 0.041

Row | Sequence | switch fluorescence ratio
176 | ATGCAAGGTT | 1.01 ± 0.018
177 | CAAAGTAGGC | 0.958 ± 0.018
178 | AGGGCAAGTG | 0.996 ± 0.034
179 | TAGGCTTTTG | 1.03 ± 0.056
180 | TTCTTGTCGG | 0.984 ± 0.027
181 | TGGGCCAGA | 1.01 ± 0.024
182 | CGATTTAGCT | 0.988 ± 0.037
183 | ATTCGGTCTG | 0.9825 ± 0.006
184 | AGTCGTACGG | 1.004 ± 0.0096
185 | TTGTAAAATA | 0.978 ± 0.058
186 | TTTTGATACG | 0.996 ± 0.041
187 | ATGTAGCATT | 1.21 ± 0.0026
188 | GGGGCGGGGA | 0.996 ± 0.045
189 | TATTTTGTAT | 1 ± 0.019
190 | CGTTCCAGCC | 1.04 ± 0.041
191 | GAGGTTATAG | 0.998 ± 0.02
192 | GGGGGGGCCC | 1.01 ± 0.026
193 | TAATAAGGCT | 0.9935 ± 0.0076
194 | GTGGGTACCA | 0.968 ± 0.017
195 | CTGGTCGGCT | 1.09 ± 0.014
196 | TCCGGAGGCA | 2.2 ± 0.059
197 | GAGCAGTGCA | 1.03 ± 0.037
198 | TTTTGGGATA | 1.03 ± 0.025
199 | CCAAGTTGCC | 0.9929 ± 0.0092
200 | CGGACAGGAG | 0.98 ± 0.051
